In PMC10698284, “SLC3A2 N-glycosylation and Golgi remodeling regulate SLC7A amino acid exchangers and stress mitigation” (The Journal of Biological Chemistry, 2023):

T1: FLAG-SLC3A2 N381D (human, UniProt P08195-1 66-630, N381D, N-glycosylated; N-glycosylation site N381 deleted)
T1 construct: SLC3A2 (4F2hc, CD98), human, cDNA encoding amino acids 66 to 630 of isoform P08195-1, with N381D; also called N381D site variant; source: HeLa Flp-In T-REx SLC3A2 KO cells, dox-induced from the Flp-In site; in lysate (AP-MS) or on the cell surface, then lysed (Gal3 co-IP); not shown: FLAG, N-terminal, kept
T1 sequence (looked up): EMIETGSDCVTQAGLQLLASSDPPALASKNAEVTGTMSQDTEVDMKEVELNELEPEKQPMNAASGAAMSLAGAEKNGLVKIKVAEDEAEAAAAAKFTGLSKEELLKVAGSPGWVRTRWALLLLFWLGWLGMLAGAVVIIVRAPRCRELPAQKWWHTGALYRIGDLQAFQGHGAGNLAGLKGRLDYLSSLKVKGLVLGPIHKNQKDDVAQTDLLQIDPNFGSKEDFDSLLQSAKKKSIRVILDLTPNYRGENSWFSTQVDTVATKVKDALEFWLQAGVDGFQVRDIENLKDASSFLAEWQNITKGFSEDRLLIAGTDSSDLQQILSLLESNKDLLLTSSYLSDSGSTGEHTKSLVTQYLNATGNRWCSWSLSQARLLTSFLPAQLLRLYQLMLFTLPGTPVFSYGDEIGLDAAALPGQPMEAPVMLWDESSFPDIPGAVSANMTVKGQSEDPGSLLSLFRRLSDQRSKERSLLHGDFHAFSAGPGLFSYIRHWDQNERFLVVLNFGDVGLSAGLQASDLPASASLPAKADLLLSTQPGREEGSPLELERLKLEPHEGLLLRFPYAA

T2: FLAG-SLC3A2 N365D (human, UniProt P08195-1 66-630, N365D, N-glycosylated; N-glycosylation site N365 deleted)
T2 construct: SLC3A2 (4F2hc, CD98), human, cDNA encoding amino acids 66 to 630 of isoform P08195-1, with N365D; also called N365D site variant; source: HeLa Flp-In T-REx SLC3A2 KO cells, dox-induced from the Flp-In site; in lysate (AP-MS) or on the cell surface, then lysed (Gal3 co-IP); not shown: FLAG, N-terminal, kept
T2 sequence (looked up): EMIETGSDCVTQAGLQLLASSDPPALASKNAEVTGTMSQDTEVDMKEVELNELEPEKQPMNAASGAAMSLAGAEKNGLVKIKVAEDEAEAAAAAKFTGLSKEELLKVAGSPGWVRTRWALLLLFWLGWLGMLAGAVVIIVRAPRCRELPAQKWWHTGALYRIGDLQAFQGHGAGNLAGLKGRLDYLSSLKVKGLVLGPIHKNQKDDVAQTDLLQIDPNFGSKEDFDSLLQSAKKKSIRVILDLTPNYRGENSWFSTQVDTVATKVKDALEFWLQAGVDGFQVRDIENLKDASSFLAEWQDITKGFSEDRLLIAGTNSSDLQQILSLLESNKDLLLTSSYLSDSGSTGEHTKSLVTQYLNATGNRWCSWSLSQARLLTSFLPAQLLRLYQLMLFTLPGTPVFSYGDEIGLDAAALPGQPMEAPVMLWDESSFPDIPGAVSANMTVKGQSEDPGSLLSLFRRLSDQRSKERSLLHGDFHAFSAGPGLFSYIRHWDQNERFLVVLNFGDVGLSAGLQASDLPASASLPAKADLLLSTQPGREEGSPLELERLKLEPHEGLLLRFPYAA

B1: SLC7A5 (natural protein)
chain: not shown
notes: SLC7A5, human, endogenous in HeLa cells, found by its tryptic peptides; Forms a disulfide-linked heterodimer with SLC3A2; also called SLC7A5 exchanger; source: endogenous, HeLa lysate
B2: SLC7A11 (natural protein, human (endogenous in HeLa), UniProt Q9UPY5 1-501, looked up)
chain: MVRKPVVSTISKGGYLQGNVNGRLPSLGNKEPPGQEKVQLKRKVTLLRGVSIIIGTIIGAGIFISPKGVLQNTGSVGMSLTIWTVCGVLSLFGALSYAELGTTIKKSGGHYTYILEVFGPLPAFVRVWVELLIIRPAATAVISLAFGRYILEPFFIQCEIPELAIKLITAVGITVVMVLNSMSVSWSARIQIFLTFCKLTAILIIIVPGVMQLIKGQTQNFKDAFSGRDSSITRLPLAFYYGMYAYAGWFYLNFVTEEVENPEKTIPLAICISMAIVTIGYVLTNVAYFTTINAEELLLSNAVAVTFSERLLGNFSLAVPIFVALSCFGSMNGGVFAVSRLFYVASREGHLPEILSMIHVRKHTPLPAVIVLHPLTMIMLFSGDLDSLLNFLSFARWLFIGLAVAGLIYLRYKCPDMHRPFKVPLFIPALFSFTCLFMVALSLYSDPFSTGIGFVITLTGVPAYYLFIIWDKKPRWFRIMSEKITRTLQIILEVVPEEDKL
notes: SLC7A11, human, endogenous in HeLa cells, found by its tryptic peptides; Forms a disulfide-linked heterodimer with SLC3A2; source: endogenous, HeLa lysate

Legend:
FLAG-SLC3A2 N381D = target: T1, FLAG-SLC3A2 N381D; test: affinity purification with mass spectrometry; anti-FLAG M2 agarose, 4 h at 4 °C, 1 mg lysate (0.5% NP40, 50 mM HEPES pH 8.0, 100 mM KCl, 1 mM EDTA, 10% glycerol) of HeLa Flp-In T-REx SLC3A2 KO cells with dox-induced FLAG-SLC3A2 WTseq or site variants; on-bead trypsin digest, DDA and SWATH; control: dox-treated SLC3A2 KO cells; in some samples 10 μM fluvastatin or 250 ng/ml swainsonine for the final 24 h; conditions: partners not purified
FLAG-SLC3A2 N365D = target: T2, FLAG-SLC3A2 N365D; test: as above; conditions: partners not purified

Row | Binder | percent decrease of the interaction against WTseq (FLAG-SLC3A2 N381D) [%] | percent decrease of the interaction against WTseq (FLAG-SLC3A2 N365D) [%]
1 | B1 | 44 ± 14 | 44 ± 14
2 | B2 | 67 ± 15 | 67 ± 15
